Test results published in patent US20150274845A1 (Hoffmann-La Roche, published 2015).

Assays:
[1] = molecular target: human Melanoma-associated Chondroitin Sulfate Proteoglycan (MCSP) (human, UniProt Q6UVK1 30-2322); experiment: cell-based or functional assay
[2] = molecular target: human CD3 T-Cell Co-Receptor (CD3) (human, UniProt P07766 23-207); experiment: cell-based or functional assay
Sequence of human CD3 T-Cell Co-Receptor (CD3) (P07766 23-207): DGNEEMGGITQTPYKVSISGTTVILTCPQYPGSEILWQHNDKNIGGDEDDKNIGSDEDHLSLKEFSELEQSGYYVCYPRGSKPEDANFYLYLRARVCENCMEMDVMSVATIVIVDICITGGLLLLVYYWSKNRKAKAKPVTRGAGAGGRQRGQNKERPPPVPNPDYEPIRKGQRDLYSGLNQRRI

Sequence of human Melanoma-associated Chondroitin Sulfate Proteoglycan (MCSP) (Q6UVK1 30-2322): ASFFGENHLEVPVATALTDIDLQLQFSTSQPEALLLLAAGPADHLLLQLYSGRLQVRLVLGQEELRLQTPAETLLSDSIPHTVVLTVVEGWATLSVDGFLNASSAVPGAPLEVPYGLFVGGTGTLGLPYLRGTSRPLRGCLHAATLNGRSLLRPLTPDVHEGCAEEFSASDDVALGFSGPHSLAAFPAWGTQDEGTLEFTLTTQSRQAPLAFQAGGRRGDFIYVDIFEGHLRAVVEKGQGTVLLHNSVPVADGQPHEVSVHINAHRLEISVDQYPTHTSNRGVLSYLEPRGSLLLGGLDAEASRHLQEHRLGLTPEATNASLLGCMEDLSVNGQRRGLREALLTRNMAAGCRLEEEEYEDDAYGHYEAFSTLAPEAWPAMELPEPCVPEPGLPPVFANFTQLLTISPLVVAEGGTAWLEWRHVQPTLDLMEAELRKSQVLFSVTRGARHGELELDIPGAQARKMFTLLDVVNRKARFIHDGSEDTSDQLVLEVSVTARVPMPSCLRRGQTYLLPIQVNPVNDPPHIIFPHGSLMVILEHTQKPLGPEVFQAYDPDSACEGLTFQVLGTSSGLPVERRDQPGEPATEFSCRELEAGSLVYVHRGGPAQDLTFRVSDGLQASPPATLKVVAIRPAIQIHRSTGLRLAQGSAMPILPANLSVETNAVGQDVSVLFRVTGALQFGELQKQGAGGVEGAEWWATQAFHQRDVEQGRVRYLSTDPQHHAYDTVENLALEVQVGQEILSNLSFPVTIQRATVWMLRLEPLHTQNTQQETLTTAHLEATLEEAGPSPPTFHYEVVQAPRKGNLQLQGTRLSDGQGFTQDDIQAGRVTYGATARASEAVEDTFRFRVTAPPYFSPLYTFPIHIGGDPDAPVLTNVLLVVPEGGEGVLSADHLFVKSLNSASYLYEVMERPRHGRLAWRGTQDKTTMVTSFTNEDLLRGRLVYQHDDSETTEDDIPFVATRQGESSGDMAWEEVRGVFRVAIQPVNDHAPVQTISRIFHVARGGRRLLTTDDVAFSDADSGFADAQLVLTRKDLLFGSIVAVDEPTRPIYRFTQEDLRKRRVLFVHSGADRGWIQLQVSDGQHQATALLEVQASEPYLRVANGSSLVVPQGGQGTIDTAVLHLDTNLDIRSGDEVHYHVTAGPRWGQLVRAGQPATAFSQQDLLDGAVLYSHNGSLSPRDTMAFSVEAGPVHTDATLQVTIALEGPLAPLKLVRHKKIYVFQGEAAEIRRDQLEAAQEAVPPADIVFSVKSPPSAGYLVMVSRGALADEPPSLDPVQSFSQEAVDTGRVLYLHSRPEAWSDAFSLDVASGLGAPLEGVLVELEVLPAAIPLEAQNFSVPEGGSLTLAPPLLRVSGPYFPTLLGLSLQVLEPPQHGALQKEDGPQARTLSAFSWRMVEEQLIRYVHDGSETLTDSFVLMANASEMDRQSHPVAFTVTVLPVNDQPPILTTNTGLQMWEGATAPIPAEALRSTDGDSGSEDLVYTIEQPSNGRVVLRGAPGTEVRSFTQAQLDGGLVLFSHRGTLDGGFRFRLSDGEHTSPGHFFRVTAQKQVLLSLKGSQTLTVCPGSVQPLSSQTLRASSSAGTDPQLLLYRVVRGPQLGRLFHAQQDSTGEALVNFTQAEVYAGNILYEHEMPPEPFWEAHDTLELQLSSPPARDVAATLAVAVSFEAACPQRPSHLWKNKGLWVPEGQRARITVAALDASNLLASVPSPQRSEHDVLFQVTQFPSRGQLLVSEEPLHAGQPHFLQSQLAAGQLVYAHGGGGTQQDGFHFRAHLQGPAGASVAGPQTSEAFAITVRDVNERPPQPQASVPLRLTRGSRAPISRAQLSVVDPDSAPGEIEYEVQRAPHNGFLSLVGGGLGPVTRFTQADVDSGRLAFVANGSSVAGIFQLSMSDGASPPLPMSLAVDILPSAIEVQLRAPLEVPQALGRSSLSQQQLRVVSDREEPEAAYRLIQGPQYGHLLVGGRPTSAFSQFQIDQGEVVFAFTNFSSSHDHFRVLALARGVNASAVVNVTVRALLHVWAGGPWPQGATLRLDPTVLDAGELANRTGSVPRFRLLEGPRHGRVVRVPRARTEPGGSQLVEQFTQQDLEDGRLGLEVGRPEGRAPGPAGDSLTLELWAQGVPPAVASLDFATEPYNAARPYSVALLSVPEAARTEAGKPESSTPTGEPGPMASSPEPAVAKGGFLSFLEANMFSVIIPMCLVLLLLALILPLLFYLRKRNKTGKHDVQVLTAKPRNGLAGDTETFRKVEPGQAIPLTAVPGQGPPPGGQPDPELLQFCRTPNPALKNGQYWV

Binder | EC50 of killing (LDH release) of MV-3 tumor cells, human PBMCs, E:T 10:1, 24 hours [1] [pM] | EC50 of killing (LDH release) of MV-3 tumor cells, human PBMCs, E:T 10:1, 24 hours [2] [pM]
hu Fab (MCSP)-Crossfab (CD3) (bispecific antibody) chain 1: EVQLQESGPGLVKPSQSLSLTCSVTGYSITSGYYWNWIRQFPGNKLEWMGYITYDGSNNYNPSLKNRISITRDTSKNQFFLKLNSVTTEDTATYYCADFDYWGQGTTLTVSSASTKGPSVFPLAPSSKSTSGGTAALGCLVKDYFPEPVTVSWNSGALTSGVHTFPAVLQSSGLYSLSSVVTVPSSSLGTQTYICNVNHKPSNTKVDKKVEPKSCDGGGGSGGGGSDIQMTQSPSSLSASVGDRVTITCRASQDIRNYLNWYQQKPGKAPKLLIYYTSRLESGVPSRFSGSGSGTDYTLTISSLQPEDFATYYCQQGNTLPWTFGQGTKVEIKSSASTKGPSVFPLAPSSKSTSGGTAALGCLVKDYFPEPVTVSWNSGALTSGVHTFPAVLQSSGLYSLSSVVTVPSSSLGTQTYICNVNHKPSNTKVDKKVEPKSC light: DIVLTQSPSSLSASLGDRVTISCSASQGIRNYLNWYQQRPDGTVKLLIYYTSSLHSGVPSRFSGSGSGTDYSLTISNLEPEDIATYYCQQYSKLPWTFGGGTKLEIKRTVAAPSVFIFPPSDEQLKSGTASVVCLLNNFYPREAKVQWKVDNALQSGNSQESVTEQDSKDSTYSLSSTLTLSKADYEKHKVYACEVTHQGLSSPVTKSFNRGEC chain 2: EVQLVESGGGLVQPGGSLRLSCAASGYSFTGYTMNWVRQAPGKGLEWVALINPYKGVSTYNQKFKDRFTISVDKSKNTAYLQMNSLRAEDTAVYYCARSGYYGDSDWYFDVWGQGTLVTVSSASVAAPSVFIFPPSDEQLKSGTASVVCLLNNFYPREAKVQWKVDNALQSGNSQESVTEQDSKDSTYSLSSTLTLSKADYEKHKVYACEVTHQGLSSPVTKSFNRGEC | 25.4 | 25.4
(scFv)2 (antiMCSP/anti huCD3e) (bispecific antibody) scFv: DIVLTQSPSSLSASLGDRVTISCSASQGIRNYLNWYQQRPDGTVKLLIYYTSSLHSGVPSRFSGSGSGTDYSLTISNLEPEDIATYYCQQYSKLPWTFGGGTKLEIKGGGGSGGGGSGGGGSEVQLQESGPGLVKPSQSLSLTCSVTGYSITSGYYWNWIRQFPGNKLEWMGYITYDGSNNYNPSLKNRISITRDTSKNQFFLKLNSVTTEDTATYYCADFDYWGQGTTLTVSSGGGGSEVQLVESGGGLVQPGGSLRLSCAASGYSFTGYTMNWVRQAPGKGLEWVALINPYKGVSTYNQKFKDRFTISVDKSKNTAYLQMNSLRAEDTAVYYCARSGYYGDSDWYFDVWGQGTLVTVSSVEGGSGGSGGSGGSGGVDDIQMTQSPSSLSASVGDRVTITCRASQDIRNYLNWYQQKPGKAPKLLIYYTSRLESGVPSRFSGSGSGTDYTLTISSLQPEDFATYYCQQGNTLPWTFGQGTKVEIKHHHHHH | 57 | 57
